Experiments:
[1] = target: SARS-CoV-2 spike ectodomain, prefusion-stabilised trimer (刺突 S2P) (SARS-CoV-2); assay: SPR, captured spike S2P, biphasic dissociation, slow phase kd2
[2] = target: SARS-CoV-2 spike ectodomain, prefusion-stabilised trimer (刺突 S2P) (SARS-CoV-2); assay: SPR, captured spike S2P, biphasic dissociation, fast phase kd1
[3] = target: SARS-CoV-2 spike ectodomain, prefusion-stabilised trimer (刺突 S2P) (SARS-CoV-2); assay: SPR, captured spike S2P
[4] = target: SARS-CoV-2 spike on live SARS-CoV-2 virus (isolate France/IDF0372/2020) (SARS-CoV-2) (UniProt P0DTC2); assay: cell-based or functional assay
[5] = target: SARS-CoV-2 spike ectodomain, prefusion-stabilised trimer (刺突 S2P) (SARS-CoV-2); assay: SPR, captured spike S2P, no measurable dissociation in ten minutes
[6] = target: SARS-CoV-2 spike ectodomain, prefusion-stabilised trimer (刺突 S2P) (SARS-CoV-2)

In the case of “Nb6-tri (trivalent Nb6 with two 20 amino acid linkers) (VHH)”, the koff [1] is reported as under 1e-06 s⁻¹, the koff [2] is reported as 0.029 s⁻¹ and the fold gain in KD against monovalent Nb6 [3] is reported as over 200000 fold. For the same substance, the mean IC50, plaque reduction neutralisation of live SARS-CoV-2 on VeroE6 cells [4] was 160 pM.
“mNb6-tri (trivalent mNb6 with 20 amino acid linkers) (VHH)” was tested, and the Kd [3] was under 1 pM, the dissociation half-life t1/2 [3] was > 8 天 (days) and the koff [5] was under 1e-06 s⁻¹.
Substance “mNb6 (affinity-matured Nb6, I27Y and P105Y) (VHH)” has an EC50 [6] of 0.056 nM.

Source: CN116472284A
